Assay results published in patent US12351833B2, “Unspecific peroxygenase enzyme variants for selective fatty acid epoxidation or hydroxylation” (CONSEJO SUPERIOR DE INVESTIGACIONES CIENTÍFICAS (CSIC), priority 2019, dated 2025).

Columns and labels:
Assay type in all cases: biochemical
[1] = Reaction of UPO enzyme with oleic acid and H2O2, products analysed by GC-MS; conditions: for Conversion of the substrate (oleic acid) into products / selectivity towards only epoxidation (ratio between only epoxides and other oxygenation products) / share of products that are only epoxides / share of products that are other (hydroxylated) epoxides / epoxidation activity / epoxidized species detected (words): enzyme 0.2 μM, oleic acid 100 μM, H2O2 2,500 μM; for Conversion of the substrate (oleic acid) into products: 30° C., 50 mM phosphate pH 5.5, 30 min, 20% acetone; for selectivity towards only epoxidation (ratio between only epoxides and other oxygenation products) / share of products that are only epoxides / share of products that are other (hydroxylated) epoxides / epoxidation activity / epoxidized species detected (words): pH 5.5, 30° C., 30 min
Protocol: The rMroUPO (0.2 μM) was incubated with oleic acid (100 μM) and H2O2 (2,500 μM) at 30° C. in 50 mM phosphate, pH 5.5, for 30 min. Oleic acid had been previously dissolved in acetone so that the final acetone concentration attained 20% (v/v) in the embodiment. After the incubation time, the products were recovered by liquid-liquid extraction with t-butyl-methyl-ether. The organic solvent was removed under N2 current. N,O-Bis-(trimethylsilyl)trifluoroacetamide was employed to prepare the trimethylsilyl derivatives of the compounds to be separated by gas chromatography and identified by mass spectrometry.
(§1) Chromatographic analyses were carried out in a gas chromatograph coupled to a mass-spectrometry detector. The column used was a fused-silica DB-5HT capillary column (30 m×0.25 mm internal diameter×0.1 μm film thickness). Oven was heated from 120° C. (1 min) to 300° C. (5 min) at 5° C.·min. Injection was performed at 300° C. and transfer line was maintained at 300° C. Compounds were identified by comparison of their mass spectra with those of authentic standards and those from the NIST and Wiley libraries as well as by mass fragmentography. Quantification of the products was carried out by integrating the total ion peak areas, using external standard curves of the same or closely related compounds.
Reactions with oleic acid and identification and quantification of the products were conducted as explained in Example 3.
The rMroUPO I153F/S156F mutated variant (SEQ ID NO: 3), in which isoleucine 153 and serine 156 were both replaced by phenylalanine residues, was constructed by site-directed mutagenesis, in a PCR reaction in which the following oligos—complementary to the region of the gene to be mutated, but bearing the desired mismatches—were used as primers: 5′-[…]-3′ (SEQ ID NO: 8), along with its reverse complementary counterpart. PCR reaction and sequencing of the mutated variant were carried out as described in Example 4. Expression, purification of the enzyme, reactions with oleic acid and GC-MS identification and quantification of the products were conducted as in Example 3.

[2] = Reaction of UPO enzyme with linoleic acid and H2O2, products analysed by GC-MS; conditions: for Conversion of linoleic acid / selectivity towards only epoxidation (ratio between only epoxides and other oxygenation products) / share of products that are hydroxylated epoxides / share of products that are only epoxides: enzyme 0.6 μM, linoleic acid 100 μM, H2O2 1,250 μM; for Conversion of linoleic acid: 30° C., 50 mM phosphate pH 5.5, 30 min, 20% acetone; for selectivity towards only epoxidation (ratio between only epoxides and other oxygenation products) / share of products that are hydroxylated epoxides / share of products that are only epoxides: pH 5.5, 30° C., 30 min
Protocol: as §1
An embodiment was designed in which rMroUPO (0.6 μM) was incubated with linoleic acid (100 μM, previously dissolved in acetone so that the final acetone concentration in the embodiment was of 20%) and H2O2 (1,250 μM) at 30° C. in 50 mM phosphate, pH 5.5, for 30 min. Identification and quantification of the products was conducted as detailed in Example 3.
Reactions were performed as in Example 6. Identification and quantification of the products is described in Example 3.

[3] = Reaction of UPO enzyme with α-linolenic acid and H2O2, products analysed by GC-MS; conditions: for Conversion of α-linolenic acid: 30° C., 50 mM phosphate pH 5.5, 30 min
Protocol: as §1
Reactions were performed in an embodiment consisting of rMroUPO (0.2 μM), incubated with α-linolenic acid (100 μM) and H2O2 (1,250 μM) at 30° C., in 50 mM phosphate, pH 5.5, for 30 min. Extraction and separation of the reaction products was carried out as described in Example 3. Since no available commercial standards of epoxidized α-linolenic acid were available, they were chemically synthesised as follows: a solution of peracetic acid (1.8 mmol, 3.6 equiv) and NaOAc (0.7 mmol; 1.4 equiv) was added to α-linolenic acid (0.5 mmol) using a syringe pump at 0° C. for 1 h. The mixture was stirred at 0° C. for an additional h. Products were recovered by liquid-liquid extraction with t-butyl-methyl-ether, resulting in a mixture of mono- and di-epoxides. Identification of the compounds was made by comparison of the mass spectra with those of the synthesised standards and by mass fragmentography. Quantification was carried out as detailed in Example 3.
Reactions and analyses of the products were performed as in Example 8. FIG. 7 illustrates a chromatogram of the reaction products, among which single epoxides, di-epoxides and other epoxidized derivatives. Conversion of the substrate attained 97%, of which 92% (of which 88% are di-epoxides) represented only epoxides and a mere 8% other epoxide derivatives. Therefore, the selectivity towards only epoxidation reached 11.50.

[4] = enzyme 0.2 μM, α-linolenic acid 100 μM, H2O2 1,250 μM
[5] = α-linolenic acid 100 μM, enzyme 0.2 μM, H2O2 1,250 μM, pH 5.5, 30° C., 30 min

| selectivity towards only epoxidation (ratio between only epoxides and other oxygenation products) [1] | share of products that are only epoxides [1] [%] | share of products that are other (hydroxylated) epoxides [1] [%] | selectivity towards only epoxidation (ratio between only epoxides and other oxygenation products) [2] | share of products that are hydroxylated epoxides [2] [%] | share of products that are only epoxides [2] [%] | selectivity towards only epoxidation (ratio between only epoxides and other oxygenation products) [3, 5] | share of products that are only epoxides [3, 5] [%] | share of products that are other epoxides / other epoxide derivatives [3, 5] [%] | Molecule | Conversion of the substrate (oleic acid) into products [1] [%] | Conversion of linoleic acid [2] [%] | Conversion of α-linolenic acid [3, 4] [%] | further results |
| --- | --- | --- | --- | --- | --- | --- | --- | --- | --- | --- | --- | --- | --- |
| 0.67 | 40 | 57 | 0.27 | 79 | 21 | 0.79 | 44 | 56 | rMroUPO: recombinant Marasmius rotula unspecific peroxygenase, SEQ ID NO: 1, encoded by SEQ ID NO: 9, expressed in E. coli (protein, Recombinant Marasmius rotula unspecific peroxygenase enzyme, rMroUPO) SAHPWKAPGPNDSRGPCPGLNTLANHGFLPRNGRNISVPMIVKAGFEGYNVQSDILILAGKIGMLTSREADTISLEDLKLHGTIEHDASLSREDVAIGDNLHFNEAIFTTLANSNPGADVYNISSAAQVQHDRLADSLARNPNVTNTDLTATIRSSESAFFLTVMSAGDPLRGEAPKKFVNVFFREERMPIKEGWKRSTTPITIPLLGPIIERITELSDWKPTGDNCGAIVLSPEL | 94 | 98 | 98 |  |
|  |  |  |  |  |  |  |  |  | rMroUPO I153F/S156F mutated variant: rMroUPO in which isoleucine 153 and serine 156 were both replaced by phenylalanine (SEQ ID NO: 3) (protein, Variant of the invention which comprises the SEQ ID NO 1 and the amino acid substitutions I153F and S156F) SAHPWKAPGPNDSRGPCPGLNTLANHGFLPRNGRNISVPMIVKAGFEGYNVQSDILILAGKIGMLTSREADTISLEDLKLHGTIEHDASLSREDVAIGDNLHFNEAIFTTLANSNPGADVYNISSAAQVQHDRLADSLARNPNVTNTDLTATFRSFESAFFLTVMSAGDPLRGEAPKKFVNVFFREERMPIKEGWKRSTTPITIPLLGPIIERITELSDWKPTGDNCGAIVLSPEL |  |  |  | epoxidation activity / epoxidized species detected (words) ([1]; listed as I153F/S156F mutated variant): completely abolishes the epoxidation activity; epoxidation activity / epoxidized species detected (words) ([1]; listed as I153F/S156F variant): completely abolished the MroUPO ability to epoxidize oleic acid; epoxidation activity / epoxidized species detected (words) ([1]; listed as MroUPO I153F/S156F mutated variant): No traces of epoxidized species were detected; selectivity towards hydroxylation ([1]; oleic acid, products restricted to ω-1 and ω hydroxylated, keto and carboxylic species): total towards hydroxylation |
| 2.67 | 72 | 17 | 0.72 | 58 | 42 | 11.50 | 92 | 8 | rMroUPO I153T mutated variant: rMroUPO in which isoleucine 153 was replaced by threonine (SEQ ID NO: 2) (protein, Variant of the invention which comprises the SEQ ID NO 1 and the amino acid substitution I153T) SAHPWKAPGPNDSRGPCPGLNTLANHGFLPRNGRNISVPMIVKAGFEGYNVQSDILILAGKIGMLTSREADTISLEDLKLHGTIEHDASLSREDVAIGDNLHFNEAIFTTLANSNPGADVYNISSAAQVQHDRLADSLARNPNVTNTDLTATTRSSESAFFLTVMSAGDPLRGEAPKKFVNVFFREERMPIKEGWKRSTTPITIPLLGPIIERITELSDWKPTGDNCGAIVLSPEL | 85 | 93 | 97 | increase of epoxidation selectivity relative to rMroUPO ([1]; oleic acid): 4 fold; ratio between stearic acid epoxide and its additionally hydroxylated derivatives (words, vs MroUPO) ([1]; oleic acid): increased; increase of epoxidation selectivity relative to rMroUPO ([2]; linoleic acid): 2.7 fold; increase of epoxidation selectivity relative to rMroUPO ([3]; α-linolenic acid): 14.6 fold; share of di-epoxides among only epoxides [3, 5]: 88% |
